How the values were obtained:
4-1BB = target: T1, 4-1BB; assay: flow cytometry on engineered mammalian cells overexpressing 4-1BB, APC anti-human Fc
T1 construct: member of group m24; also called 4-1BB overexpressed in engineered mammalian cells

[1] = target: T2, biotinylated recombinant human TNFRSF25-His tagged (Acro #TN5-H52H3) (human, UniProt Q93038 25-199, biotinylated); assay: SPR (Biacore 8K); biotinylated TNFRSF25-His on streptavidin chip SA, SL-061 flowed; 1:1 binding
T2 construct: treated as the same protein; also called recombinant biotin-conjugated human TNFRSF25 protein; DR3
T2 sequence (looked up): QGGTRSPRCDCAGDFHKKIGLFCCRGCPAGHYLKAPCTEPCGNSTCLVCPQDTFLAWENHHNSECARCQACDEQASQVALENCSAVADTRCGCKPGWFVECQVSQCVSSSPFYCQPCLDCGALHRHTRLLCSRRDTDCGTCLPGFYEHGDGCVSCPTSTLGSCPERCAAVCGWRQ
Procedure: (FIG. 5A) BLI assay was performed using the Octet Red 96e instrument. Streptavidin biosensors were loaded with biotinylated recombinant human TNFRSF25-His tagged (Acro #TN5-H52H3) as the ligand. […] (FIG. 5B) SPR was performed on a Biacore 8K instrument.

[2] = target: T3, biotinylated recombinant human FcRn-His tagged protein (Acro #FCM-H82W7) (human, UniProt P55899 24-297; P61769 21-119, biotinylated); assay: BLI/Octet; biotinylated human FcRn-His on streptavidin biosensor; pH 7.4
T3 construct: also called hFcRn; neonatal Fc receptor
T3 sequence (P55899 24-297 limits assumed, chain 1 of 2): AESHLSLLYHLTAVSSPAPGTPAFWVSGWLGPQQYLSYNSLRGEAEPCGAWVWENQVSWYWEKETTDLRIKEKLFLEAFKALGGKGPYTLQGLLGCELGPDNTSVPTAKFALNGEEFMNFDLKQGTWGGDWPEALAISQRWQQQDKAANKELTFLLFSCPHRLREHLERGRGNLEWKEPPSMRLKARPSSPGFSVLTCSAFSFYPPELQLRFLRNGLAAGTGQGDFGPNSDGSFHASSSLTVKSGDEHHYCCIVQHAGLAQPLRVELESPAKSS
T3 sequence (P61769 21-119 limits assumed, chain 2 of 2): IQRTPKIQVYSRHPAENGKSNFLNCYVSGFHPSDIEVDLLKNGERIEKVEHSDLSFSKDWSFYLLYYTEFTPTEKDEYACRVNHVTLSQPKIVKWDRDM
Procedure: (§1) Figure 5D: FIG. 5D. FcRn binding kinetics by anti-TNFRSF25 antibodies. BLI assay was performed using the Octet Red 96e instrument. Streptavidin biosensors were loaded with biotinylated recombinant human(h) FcRn-His tagged protein (Acro #FCM-H82W7) as the ligand. During the association phase, biosensors were incubated with anti-DR3 candidate antibodies at various concentrations for 600 seconds, followed by a 600-second dissociation phase.
(§2) To detect binding of certain whole antibodies to the neonatal Fc receptor (FcRn) at neutral and acidic pH conditions, streptavidin biosensors were loaded with biotinylated recombinant human FcRn-His tagged protein (Acro #FCM-H82W7) as the ligand. During the association phase, biosensors were incubated with anti-TNFRSF25 antibodies at various concentrations for 600 seconds, followed by a 600 second dissociation phase.

OX40 = target: T4, OX40; assay: flow cytometry on engineered mammalian cells overexpressing OX40, APC anti-human Fc
T4 construct: member of group m24; also called OX40 overexpressed in engineered mammalian cells
T4 chain: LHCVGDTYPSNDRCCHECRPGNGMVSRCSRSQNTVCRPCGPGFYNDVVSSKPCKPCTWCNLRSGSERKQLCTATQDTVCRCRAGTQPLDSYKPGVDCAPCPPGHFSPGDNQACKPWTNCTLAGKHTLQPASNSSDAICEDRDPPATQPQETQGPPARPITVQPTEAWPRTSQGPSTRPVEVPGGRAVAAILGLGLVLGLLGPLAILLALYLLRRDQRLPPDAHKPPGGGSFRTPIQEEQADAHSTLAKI

[3] = target: T5, TNFRSF25 on lymphocytes in human PBMCs (human, UniProt Q93038 25-417); assay: flow cytometry MFI on NK cells of human PBMCs, IL12+IL18 stimulation 24 h, APC anti-human Fc
T5 construct: whole, on cells; also called TNFRSF25 on CD4+ and CD8+ T cells and NK cells
T5 sequence (looked up): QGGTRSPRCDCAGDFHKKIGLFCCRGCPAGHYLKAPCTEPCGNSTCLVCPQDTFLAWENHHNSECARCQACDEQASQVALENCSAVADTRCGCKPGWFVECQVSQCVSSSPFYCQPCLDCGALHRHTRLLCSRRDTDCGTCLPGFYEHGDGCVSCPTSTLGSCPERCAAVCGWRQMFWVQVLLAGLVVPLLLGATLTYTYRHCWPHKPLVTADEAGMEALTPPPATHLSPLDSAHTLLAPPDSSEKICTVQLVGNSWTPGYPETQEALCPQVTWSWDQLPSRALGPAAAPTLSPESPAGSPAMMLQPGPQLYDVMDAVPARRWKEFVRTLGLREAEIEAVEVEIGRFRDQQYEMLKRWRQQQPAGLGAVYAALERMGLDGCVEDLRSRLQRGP
Procedure: Human PBMCs were stimulated with either IL12+IL18 or anti-CD3/CD28 for 24 hours to assess binding of anti-TNFRSF25 to lymphocyte subsets.
Figure 9: FIG. 9. […] Figure 10: FIG. 10.

CD40 = target: T6, CD40; assay: flow cytometry on engineered mammalian cells overexpressing CD40, APC anti-human Fc
T6 construct: member of group m24; also called CD40 overexpressed in engineered mammalian cells
T6 sequence (chain, as listed by the source limits assumed): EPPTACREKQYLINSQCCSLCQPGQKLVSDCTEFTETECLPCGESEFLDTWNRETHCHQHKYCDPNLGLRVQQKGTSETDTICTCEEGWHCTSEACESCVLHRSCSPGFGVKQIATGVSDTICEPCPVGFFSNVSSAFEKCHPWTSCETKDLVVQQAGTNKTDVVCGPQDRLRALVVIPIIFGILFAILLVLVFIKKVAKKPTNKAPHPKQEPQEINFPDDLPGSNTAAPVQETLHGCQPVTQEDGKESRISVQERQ

[4] = target: T5, TNFRSF25 on lymphocytes in human PBMCs; assay: flow cytometry MFI on CD8+ T cells of human PBMCs (panel 1003_CD8+T), no stimulation, APC anti-human Fc
LTbR = target: T7, LTbR; assay: flow cytometry on engineered mammalian cells overexpressing LTbR, APC anti-human Fc
T7 construct: member of group m24; also called LTbR overexpressed in engineered mammalian cells

[5] = target: T5, TNFRSF25 on lymphocytes in human PBMCs; assay: flow cytometry MFI on NK cells of human PBMCs, no stimulation, APC anti-human Fc
[6] = target: T2, biotinylated recombinant human …; assay: MSD competition; TNFRSF25 on plate, antibody titrated, then recombinant TL1A (TL1A-rabbit Fc) as competitor
Procedure: Figure 6: FIG. 6. […] Human TNFRSF25 was precoated on MSD assay plates followed by incubating with various concentrations of anti-TNFRSF25 antibodies.

[7] = target: T3, biotinylated recombinant human FcRn-His …; assay: BLI/Octet; biotinylated human FcRn-His on streptavidin biosensor; pH 6.0
Procedure: as §1, §2

T1 sequence (chain, as listed by the source limits assumed): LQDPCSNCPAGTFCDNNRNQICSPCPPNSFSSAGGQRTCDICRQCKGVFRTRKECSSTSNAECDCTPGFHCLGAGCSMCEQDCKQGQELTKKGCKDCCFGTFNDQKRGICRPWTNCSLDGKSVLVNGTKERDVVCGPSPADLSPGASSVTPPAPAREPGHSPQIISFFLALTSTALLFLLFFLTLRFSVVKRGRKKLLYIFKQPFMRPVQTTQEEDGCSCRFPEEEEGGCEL

B1: SL-061 (antibody, human IgG1, kappa)
heavy: QVQLQQSGPGLVKPSQTLSLTCAISGDSVSGYSAAWNWIRQSPSRGLEWLGRTYYRSKWYNDYAVSVKSRITINPDTSKNQFSLQLNSVTPEDTAVYYCARDYYGSESYYNRGYYYYGMDVWGQGTTVTVSSASTKGPSVFPLAPSSKSTSGGTAALGCLVKDYFPEPVTVSWNSGALTSGVHTFPAVLQSSGLYSLSSVVTVPSSSLGTQTYICNVNHKPSNTKVDKKVEPKSCDKTHTCPPCPAPEAAGAPSVFLFPPKPKDTLMISRTPEVTCVVVDVSHEDPEVKFNWYVDGVEVHNAKTKPREEQYNSTYRVVSVLTVLHQDWLNGKEYKCKVSNKALPAPIEKTISKAKGQPREPQVYTLPPSREEMTKNQVSLTCLVKGFYPSDIAVEWESNGQPENNYKTTPPVLDSDGSFFLYSKLTVDKSRWQQGNVFSCSVMHEALHNHYTQKSLSLSPGK
light: AIQLTQSPSSLSASVGDRVTITCRASPGISSALAWYQQKPGKAPKLLMYDESSQESGVPSRFSGSGSGTDFTLTISSLQPEDFATYYCQQFNDYPLTFGGGTKVEIKRTVAAPSVFIFPPSDEQLKSGTASVVCLLNNFYPREAKVQWKVDNALQSGNSQESVTEQDSKDSTYSLSSTLTLSKADYEKHKVYACEVTHQGLSSPVTKSFNRGEC
notes: Same variable regions as SL-033; IgG1 with L234A/L235A+G237A; also called clone 061; SL-061 (L234A/L235A+G237A)
- binding result (4-1BB): no binding (tested: about 20 nM)
- Kd [1]: 0.00136 nM
- Kd [2]: 7.41 nM
- koff [2]: 0.00327 s⁻¹
- kon [2]: 441000 M⁻¹ s⁻¹
- binding result (OX40): no binding (tested: about 20 nM)
- EC50 [3]: 0.065 nM
- binding result (CD40): no binding (tested: about 20 nM)
- EC50 [4]: 0.068 nM
- binding result (LTbR): no binding (tested: about 20 nM)
- EC50 [5]: 0.078 nM
- IC50 [6]: 0.056 nM
- Kd [7]: 4.41 nM
- koff [7]: 0.00104 s⁻¹
- kon [7]: 235000 M⁻¹ s⁻¹
